Experimental data reported in paper PMC4335501.

Biological target: HAdV-52 short fiber knob (human adenovirus type 52 (HAdV-52))
Assay: SPR; 52SFK captured by its His-tag on a Ni-NTA chip (700 RU); fetuin or asialofetuin type II as analytes, two-fold series 125 to 1 μM; 25°C; HBS-EP+; Biacore T100

B1: sialylated fetuin glycoprotein (natural protein)
chain: IPLDPVAGYKEPACDDPDTEQAALAAVDYINKHLPRGYKHTLNQIDSVKVWPRRPTGEVYDIEIDTLETTCHVLDPTPLANCSVRQQTQHAVEGDCDIHVLKQDGQFSVLFTKCDSSPDSAEDVRKLCPDCPLLAPLNDSRVVHAVEVALATFNAESNGSYLQLVEISRAQFVPLPVSVSVEFAVAATDCIAKEVVDPTKCNLLAEKQYGFCKGSVIQKALGGEDVRVTCTLFQTQPVIPQPQPDGAEAEAPSAVPDAAGPTPSAAGPPVASVVVGPSVVAVPLPLHRAHYDLRHTFSGVASVESSSGEAFHVGKTPIVGQPSIPGGPVRLCPGRIRYFKI
modifications: sialylated glycans
Question: For B1, which Kd is on record?
Answer: The Kd was 37 µM.
